Experimental data published in US20240109955A1.

Legend:
Assay in all cases: cell-based or functional assay
[1] = target: SARS-CoV-2 spike protein, Omicron variant BQ.1.1 (SARS-CoV-2)
[2] = target: SARS-CoV-2 spike protein, Omicron variant BA.2.75.2 (SARS-CoV-2)
[3] = target: SARS-CoV-2 spike protein, Omicron variant BA.4/5 (SARS-CoV-2)
[4] = target: SARS-CoV-2 Omicron variant BQ.1.1 spike protein (SARS-CoV-2)
[5] = target: SARS-CoV-2 Omicron variant BA.4/5 spike protein (SARS-CoV-2)
[6] = target: SARS-CoV-2 Omicron variant BA.2.75.2 spike protein (SARS-CoV-2)
[7] = target: SARS-CoV-2 spike (S) protein, Mu variant (B.1.621) (SARS-CoV-2) (UniProt P0DTC2)
[8] = target: SARS-CoV-2 Omicron BA.4.6 spike protein (R346T, F486V) (SARS-CoV-2) (UniProt P0DTC2)
[9] = target: SARS-CoV-2 spike protein, Alpha variant (B.1.1.7) (SARS-CoV-2)
[10] = target: SARS-CoV-2 spike protein, Beta variant 1 (B.1.351.v1) (SARS-CoV-2)
[11] = target: SARS-CoV-2 spike protein, Omicron variant BA.2.12.1 (SARS-CoV-2) (UniProt P0DTC2)
[12] = target: SARS-CoV-2 spike protein, Omicron variant BA1.1.529 (SARS-CoV-2) (UniProt P0DTC2)
[13] = target: SARS-CoV-2 spike (S) protein, Iota variant (B.1.526) (SARS-CoV-2) (UniProt P0DTC2)
[14] = target: SARS-CoV-2 spike (S) protein, Lambda variant (C.37) (SARS-CoV-2) (UniProt P0DTC2)
[15] = target: SARS-CoV-2 spike protein, Omicron variant BA.1 (SARS-CoV-2) (UniProt P0DTC2)
[16] = target: SARS-CoV-2 spike protein, Omicron variant BA.2 (SARS-CoV-2) (UniProt P0DTC2)
[17] = target: SARS-CoV-2 spike protein, Gamma variant (P.1) (SARS-CoV-2)
[18] = target: SARS-CoV-2 spike (S) protein, C.1.2 variant (SARS-CoV-2) (UniProt P0DTC2)
[19] = target: SARS-CoV-2 spike protein, Delta variant (B.1.617.2) (SARS-CoV-2)
[20] = target: SARS-CoV-2 spike (S) protein, Omicron sublineage BA.4.6 (R346T, F486V) (SARS-CoV-2) (UniProt P0DTC2)
[21] = target: SARS-CoV-2 Omicron variant XBB spike protein (SARS-CoV-2)
[22] = target: SARS-CoV-2 spike (S) protein, Omicron sublineage BA.1.1 (R346K) (SARS-CoV-2) (UniProt P0DTC2)
[23] = target: SARS-CoV-2 spike (S) protein, Omicron sublineage BA.4.7 (R346S, F486V) (SARS-CoV-2) (UniProt P0DTC2)
[24] = target: SARS-CoV-2 spike (S) protein, Omicron sublineage BF.7 (R346T, F486V) (SARS-CoV-2) (UniProt P0DTC2)
[25] = target: SARS-CoV-2 spike (S) protein, Omicron sublineage BQ 1.1 (R346T, K444T, F486V) (SARS-CoV-2) (UniProt P0DTC2)

Sequence of A19-46 (antibody) (VH): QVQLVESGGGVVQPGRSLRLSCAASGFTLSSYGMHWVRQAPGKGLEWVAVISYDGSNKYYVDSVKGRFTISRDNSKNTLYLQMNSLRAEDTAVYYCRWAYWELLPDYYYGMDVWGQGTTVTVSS
Sequence of A19-46 (antibody) (VL): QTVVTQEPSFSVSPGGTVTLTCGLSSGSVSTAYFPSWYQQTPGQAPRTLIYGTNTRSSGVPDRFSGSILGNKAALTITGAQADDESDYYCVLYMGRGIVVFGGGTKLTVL
Sequence of A19-46.1 (antibody) (VH): as the sequence (VH) above
Sequence of A19-46.1 (antibody) (VL): as the sequence (VL) above

A19-46 (antibody) showed an IC50, pseudovirus neutralization [1] of 0.386 µg/mL, an IC80, pseudovirus neutralization [1] of 1.11 µg/mL and an IC50, pseudovirus neutralization [2] of over 10 µg/mL. The IC80, pseudovirus neutralization [2] was over 10 µg/mL, the IC50, pseudovirus neutralization [3] was over 10 µg/mL and the IC80, pseudovirus neutralization [3] was over 10 µg/mL. For the same substance, the IC50, pseudovirus neutralization [4] was 0.386 µg/mL, the IC80, pseudovirus neutralization [4] was 1.11 µg/mL and the IC50, pseudovirus neutralization [5] was over 10 µg/mL. The IC80, pseudovirus neutralization [5] was over 10 µg/mL, the IC50, pseudovirus neutralization [6] was over 10 µg/mL and the IC80, pseudovirus neutralization [6] was over 10 µg/mL.
A19-46.1 (antibody) gave a pseudovirus neutralization IC50 (nM (inferred)) [7] of 1.34, a pseudovirus neutralization IC80 (nM (inferred)) [7] of 3.81 and an IC50, pseudovirus neutralization [8] of over 10000 nM. The IC80, pseudovirus neutralization [8] was over 10000 nM, the IC50, pseudovirus neutralization [9] was 0.19 nM and the IC80, pseudovirus neutralization [9] was 0.486 nM. It also gave an IC50, pseudovirus neutralization [10] of 0.807 nM, an IC80, pseudovirus neutralization [10] of 2.07 nM and an IC50, pseudovirus neutralization [11] of over 66.7 nM. For the same substance, the IC80, pseudovirus neutralization [11] was over 66.7 nM, the IC50, pseudovirus neutralization [12] was 1.84 nM and the IC80, pseudovirus neutralization [12] was 2.84 nM. It also gave a pseudovirus neutralization IC50 (nM (inferred)) [13] of 0.803, a pseudovirus neutralization IC80 (nM (inferred)) [13] of 1.88 and a pseudovirus neutralization IC50 (nM (inferred)) [14] of over 66.7. For the same substance, the pseudovirus neutralization IC80 (nM (inferred)) [14] was over 66.7, the IC50, pseudovirus neutralization [15] was 0.958 nM and the IC80, pseudovirus neutralization [15] was 2.28 nM. The IC50, pseudovirus neutralization [16] was 0.69 nM, the IC80, pseudovirus neutralization [16] was 2.23 nM and the IC50, pseudovirus neutralization [17] was 0.26 nM. The IC80, pseudovirus neutralization [17] was 0.7 nM, the pseudovirus neutralization IC50 (nM (inferred)) [18] was 11.6 and the pseudovirus neutralization IC80 (nM (inferred)) [18] was 21. For the same substance, the IC50, pseudovirus neutralization [19] was over 66.7 nM and the IC80, pseudovirus neutralization [19] was over 66.7 nM.
In the case of bebtelovimab (LY1404) (antibody), the IC50, pseudovirus neutralization [20] is reported as 22.3 nM, the IC80, pseudovirus neutralization [20] is reported as 25.4 nM and the IC50, pseudovirus neutralization [21] is reported as over 10 µg/mL. It also gave an IC80, pseudovirus neutralization [21] of over 10 µg/mL, an IC50, pseudovirus neutralization [4] of over 10 µg/mL and an IC80, pseudovirus neutralization [4] of over 10 µg/mL. It also gave an IC50, pseudovirus neutralization [22] of 26.4 nM, an IC80, pseudovirus neutralization [22] of 65.1 nM and an IC50, pseudovirus neutralization [23] of 5.9 nM. The IC80, pseudovirus neutralization [23] was 16.1 nM, the IC50, pseudovirus neutralization [24] was 16.9 nM and the IC80, pseudovirus neutralization [24] was 25.2 nM. For the same substance, the IC50, pseudovirus neutralization [6] was 0.00567 µg/mL, the IC80, pseudovirus neutralization [6] was 0.0207 µg/mL and the IC50, pseudovirus neutralization [25] was over 10000 nM. It also gave an IC80, pseudovirus neutralization [25] of over 10000 nM.
